{"source": "paper PMC2692298", "about": "(Science signaling, 2008)", "target": "stromal cell derived factor-1 (SDF-1, also known as CXCL12), wild type (UniProt P48061 22-93)"}
{"binder": "GSMEGISIYTSDNYTEEMGSGDYDSMKEPAFREENANFNK (sulfotyrosine at positions 7, 12 and 21)", "note": "[CXCR4 N-terminal peptide p38-sY3 (sulfotyrosine at positions 7, 12 and 21)]", "values": [{"measurement": "Kd", "value": "200 ± 200", "unit": "nM"}, {"measurement": "fold tighter binding than the unsulfated peptide p38", "value": "~20", "unit": "fold"}]}
